T1: human LAG-3-ECD.D12.mFc mutant W92A (human, UniProt P18627 37-252)
T1 construct: Alanine scanning mutant; construct limits as for m26
T1 chain: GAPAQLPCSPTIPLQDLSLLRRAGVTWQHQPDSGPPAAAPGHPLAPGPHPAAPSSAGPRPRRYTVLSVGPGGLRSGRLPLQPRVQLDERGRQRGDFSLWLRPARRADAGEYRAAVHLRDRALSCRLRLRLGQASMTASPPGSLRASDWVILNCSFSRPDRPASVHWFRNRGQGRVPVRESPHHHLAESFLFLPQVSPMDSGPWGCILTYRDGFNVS

T2: human LAG-3-ECD.D12.mFc mutant P72A (human, UniProt P18627 37-252)
T2 construct: Alanine scanning mutant; construct limits as for m26
T2 chain: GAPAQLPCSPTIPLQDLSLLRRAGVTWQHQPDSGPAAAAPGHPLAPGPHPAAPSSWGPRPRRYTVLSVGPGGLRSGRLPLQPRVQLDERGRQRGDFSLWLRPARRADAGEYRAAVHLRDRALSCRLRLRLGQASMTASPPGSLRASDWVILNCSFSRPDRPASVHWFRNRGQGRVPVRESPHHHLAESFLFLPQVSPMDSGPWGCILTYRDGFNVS

T3: human LAG-3-ECD.D12.mFc mutant A40G (human, UniProt P18627 37-252)
T3 construct: construct limits as for m26
T3 chain: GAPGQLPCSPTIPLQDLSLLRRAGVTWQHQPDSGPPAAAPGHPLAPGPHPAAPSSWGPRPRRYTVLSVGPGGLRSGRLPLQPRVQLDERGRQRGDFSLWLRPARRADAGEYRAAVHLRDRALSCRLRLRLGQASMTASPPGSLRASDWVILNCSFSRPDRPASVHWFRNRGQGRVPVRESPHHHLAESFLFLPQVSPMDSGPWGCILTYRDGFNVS

T4: human LAG-3-ECD.D12.mFc mutant T62A (human, UniProt P18627 37-252)
T4 construct: Alanine scanning mutant; construct limits as for m26
T4 chain: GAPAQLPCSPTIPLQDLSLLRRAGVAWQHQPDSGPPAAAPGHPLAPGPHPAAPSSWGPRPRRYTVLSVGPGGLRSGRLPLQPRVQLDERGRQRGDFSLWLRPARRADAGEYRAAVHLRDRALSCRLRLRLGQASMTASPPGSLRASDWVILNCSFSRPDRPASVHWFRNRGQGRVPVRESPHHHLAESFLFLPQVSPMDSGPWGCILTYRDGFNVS

T5: human LAG-3-ECD.D12.mFc mutant R163A (human, UniProt P18627 37-252)
T5 construct: Alanine scanning mutant; construct limits as for m26
T5 chain: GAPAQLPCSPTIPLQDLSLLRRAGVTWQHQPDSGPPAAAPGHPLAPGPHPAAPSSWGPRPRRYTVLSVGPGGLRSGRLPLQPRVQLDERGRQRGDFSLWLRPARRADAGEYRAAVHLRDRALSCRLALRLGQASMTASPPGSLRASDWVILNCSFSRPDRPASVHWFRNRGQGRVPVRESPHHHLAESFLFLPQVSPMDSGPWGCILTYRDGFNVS

T6: human LAG-3-ECD.D12.mFc mutant W135A (human, UniProt P18627 37-252)
T6 construct: Alanine scanning mutant; construct limits as for m26
T6 chain: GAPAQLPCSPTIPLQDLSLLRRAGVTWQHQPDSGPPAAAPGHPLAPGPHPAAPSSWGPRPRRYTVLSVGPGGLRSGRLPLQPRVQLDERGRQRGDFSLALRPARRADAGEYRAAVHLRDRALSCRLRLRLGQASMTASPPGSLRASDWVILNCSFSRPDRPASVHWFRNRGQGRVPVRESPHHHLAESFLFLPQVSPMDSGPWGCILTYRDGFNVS

T7: human LAG-3-ECD.D12.mFc mutant G130A (human, UniProt P18627 37-252)
T7 construct: Alanine scanning mutant; construct limits as for m26
T7 chain: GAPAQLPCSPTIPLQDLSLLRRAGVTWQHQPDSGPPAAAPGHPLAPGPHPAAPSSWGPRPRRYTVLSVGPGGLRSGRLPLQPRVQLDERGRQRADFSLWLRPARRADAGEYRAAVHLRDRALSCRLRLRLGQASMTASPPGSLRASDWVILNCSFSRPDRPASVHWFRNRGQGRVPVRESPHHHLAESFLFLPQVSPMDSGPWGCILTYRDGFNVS

T8: human LAG-3-ECD.D12.mFc mutant V151A (human, UniProt P18627 37-252)
T8 construct: Alanine scanning mutant; construct limits as for m26
T8 chain: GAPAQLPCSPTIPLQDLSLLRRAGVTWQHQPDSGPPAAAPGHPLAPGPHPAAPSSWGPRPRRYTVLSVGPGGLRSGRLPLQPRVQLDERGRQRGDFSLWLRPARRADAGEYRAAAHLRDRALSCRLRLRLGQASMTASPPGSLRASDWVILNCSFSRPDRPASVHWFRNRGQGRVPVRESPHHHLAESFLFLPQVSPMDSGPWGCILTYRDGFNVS


Columns and labels:
Test in all cases: ELISA, antibody coated, LAG-3 D12.mFc mutant in supernatant, normalised to control mutants
[1] = molecular target: T1, human LAG-3-ECD.D12.mFc mutant W92A
Method in brief: (§1)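 Antibody 1.53.3-uAb-IgG4k or 3.40.19-uAb-hIgG4L coated at 2 μg/mL, then exposed to supernatant containing quantified LAG-3 D12.mFc mutants. Detection with HRP anti-mFc (1:5000). Absorbance normalized to mean of control mutants; binding fold change <0.75 set as epitope cutoff.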

[2] = molecular target: T2, human LAG-3-ECD.D12.mFc mutant P72A
Method in brief: as §1

[3] = molecular target: T3, human LAG-3-ECD.D12.mFc mutant A40G
Method in brief: as §1

[4] = molecular target: T4, human LAG-3-ECD.D12.mFc mutant T62A
Method in brief: as §1

[5] = molecular target: T5, human LAG-3-ECD.D12.mFc mutant R163A
Method in brief: as §1

[6] = molecular target: T6, human LAG-3-ECD.D12.mFc mutant W135A
Method in brief: as §1

[7] = molecular target: T7, human LAG-3-ECD.D12.mFc mutant G130A
Method in brief: as §1

[8] = molecular target: T8, human LAG-3-ECD.D12.mFc mutant V151A
Method in brief: as §1

Fold Change [1] | Fold Change [2] | Fold Change [3] | Fold Change [4] | Fold Change [5] | Fold Change [6] | Fold Change [7] | Fold Change [8] | Binder
0.554 | 0.743 | – | – | – | – | – | – | 1.53.3-uAb-IgG4k (antibody, V domains shown, Fully human antibody from OMT rats; IgG4 kappa by its name) VH: QVQLQQWGAGLLKPSETLSLTCGVYGGSFSGYYWSWIRQPPGMGLEWIGEINHRGNTNYNPSLKSRVTISEDTSKNQFSLRLSSVTAADTAVYFCTRGEDYSDYDYYGDFWGQGTLVTVSS VL: EIVLTQSPATLSLSQGERATLSCRASQSISSYLAWYQQKPGQAPRLLIYAASNRATGIPARFSGSGSGTDFTLTISSLEPEDFAIYYCQQRSNWPLTFGGGTKVEIK
– | – | 0.608 | 0.727 | 0.655 | 0.049 | 0.102 | 0.043 | 3.40.19-uAb-IgG4L (antibody, V domains shown, Fully human antibody from OMT rats; IgG4 lambda by its name; also called 3.40.19-uAb-hIgG4L) VH: QLQLQESGPGLVKPSETLSLTCTVSGDSISSTSYYWGWIRQPPGKGLEWIGSFYYSGSTYYNPSLKSRVTISVDTSKNQFSLKLNSVTAADTAVYYCARMQLWSYDVDVWGQGTTVTVSS VL: QSALTQPASVSGSPGQSITISCTGTSSDVGGYDYVAWYQQHPGKVPKLMIYDVSERPSGVSNRFSGSKSGNTASLTISGLQAEDEADYYCSSYTSTTTLVVFGGGTKLSVL

Reference: patent US20200407442A1 (WUXI BIOLOGICS IRELAND, published 2020)
